From the supplement of paper PMC11246515
± gives the standard deviation of the averaged measurements.

Assay: total protein half-life in vivo (active degradation + dilution); higher = more stable protein
[1] = E. coli NCM3722 delta-smpB, growth: N-lim chemostat, doubling time 6 h
[2] = wild type E. coli NCM3722, growth: C-lim chemostat, doubling time 3 h
[3] = wild type E. coli NCM3722, growth: C-lim chemostat, doubling time 6 h
[4] = wild type E. coli NCM3722, growth: N-lim chemostat, doubling time 6 h
[5] = wild type E. coli NCM3722, growth: P-lim chemostat, doubling time 12 h
[6] = E. coli NCM3722 delta-clpP delta-lon delta-hslV, growth: N-lim chemostat, doubling time 6 h
[7] = E. coli NCM3722 delta-clpP, growth: N-lim chemostat, doubling time 6 h
[8] = E. coli NCM3722 delta-hslV, growth: N-lim chemostat, doubling time 6 h
[9] = E. coli NCM3722 delta-lon, growth: N-lim chemostat, doubling time 6 h
[10] = wild type E. coli NCM3722, growth: C-lim chemostat, doubling time 12 h
[11] = wild type E. coli NCM3722, growth: N-lim chemostat, doubling time 12 h
[12] = wild type E. coli NCM3722, growth: P-lim chemostat, doubling time 6 h

| Sequence | total protein half-life in vivo [1] [h] | total protein half-life in vivo [2] [h] | total protein half-life in vivo [3] [h] | total protein half-life in vivo [4] [h] | total protein half-life in vivo [5] [h] | total protein half-life in vivo [6] [h] | total protein half-life in vivo [7] [h] | total protein half-life in vivo [8] [h] | total protein half-life in vivo [9] [h] | total protein half-life in vivo [10] [h] | total protein half-life in vivo [11] [h] | total protein half-life in vivo [12] [h] |
| --- | --- | --- | --- | --- | --- | --- | --- | --- | --- | --- | --- | --- |
| MATPYISMAGIGKSFGPVHALKSVNLTVYPGEIHALLGENGAGKSTLMKVLSGIHEPTKGTITINNISYNKLDHKLAAQLGIGIIYQELSVIDELTVLENLYIGRHLTKKICGVNIIDWREMRVRAAMMLLRVGLKVDLDEKVANLSISHKQMLEIAKTLMLDAKVIIMDEPTSSLTNKEVDYLFLIMNQLRKEGTAIVYISHKLAEIRRICDRYTVMKDGSSVCSGIVSDVSNDDIVRLMVGRELQNRFNAMKENVSNLAHETVFEVRNVTSRDRKKVRDISFSVCRGEILGFAGLVGSGRTELMNCLFGVDKRAGGEIRLNGKDISPRSPLDAVKKGMAYITESRRDNGFFPNFSIAQNMAISRSLKDGGYKGAMGLFHEVDEQRTAENQRELLALKCHSVNQNITELSGGNQQKVLISKWLCCCPEVIIFDEPTRGIDVGAKAEIYKVMRQLADDGKVILMVSSELPEIITVCDRIAVFCEGRLTQILTNRDDMSEEEIMAWALPQE | > 8 | 2.84 ± 0.095 | 5.265 ± 0.0056 | 6.14 | 10.6 |  |  |  |  |  |  |  |
| MATTHLDVCAVVPAAGFGRRMQTECPKQYLSIGNQTILEHSVHALLAHPRVKRVVIAISPGDSRFAQLPLANHPQITVVDGGDERADSVLAGLKAAGDAQWVLVHDAARPCLHQDDLARLLALSETSRTGGILAAPVRDTMKRAEPGKNAIAHTVDRNGLWHALTPQFFPRELLHDCLTRALNEGATITDEASALEYCGFHPQLVEGRADNIKVTRPEDLALAEFYLTRTIHQENT | 4.66 ± 0.47 | 3.29 ± 0.43 | 6.7 ± 1.2 | 5.66 ± 1.1 | 11.96 ± 0.058 | 4.65 ± 0.39 | 5.096 ± 0.047 | 5.2 ± 1.2 | 4.6 ± 2.6 | 10.6 ± 1.2 | 8.34 ± 2 |  |
| MATTQQSGFAPAASPLASTIVQTPDDAIVAGFTSIPSQGDNMPAYHARPKQSDGPLPVVIVVQEIFGVHEHIRDICRRLALEGYLAIAPELYFREGDPNDFADIPTLLSGLVAKVPDSQVLADLDHVASWASRNGGDVHRLMITGFCWGGRITWLYAAHNPQLKAAVAWYGKLTGDKSLNSPKQPVDIATDLNAPILGLYGGQDNSIPQESVETMRQALRAANAKAEIIVYPDAGHAFNADYRPSYHAASAEDGWQRMLEWFKQYGGKKSL | 3.92 ± 0.051 | 2.59 ± 0.14 | 4.52 ± 0.53 | 3.85 ± 0.1 | 8.35 ± 0.2 | 4.8 ± 0.66 | 3.82 ± 0.21 | 4.01 ± 0.11 | 4.18 ± 0.37 | 8.52 ± 2.4 | 5.35 ± 1.5 | 4.06 ± 0.17 |
| MATTTAECLTQETMDYHALNAMLNLYDSAGRIQFDKDRQAVDAFIATHVRPNSVTFSSQQQRLNWLVNEGYYDESVLNRYSRDFVITLFTHAHTSGFRFQTFLGAWKFYTSYTLKTFDGKRYLEDFADRVTMVALTLAQGDETLALQLTDEMLSGRFQPATPTFLNCGKQQRGELVSCFLLRIEDNMESIGRAVNSALQLSKRGGGVAFLLSNLREAGAPIKRIENQSSGVIPVMKMLEDAFSYANQLGARQGAGAVYLHAHHPDILRFLDTKRENADEKIRIKTLSLGVVIPDITFHLAKENAQMALFSPYDVERVYGKPFADVAISQHYDELVADERIRKKYLNARDFFQRLAEIQFESGYPYIMYEDTVNRANPIAGRINMSNLCSEILQVNSASEYDENLDYTRTGHDISCNLGSLNIAHTMDSPDFARTVETAVRGLTAVSDMSHIRSVPSIEAGNAASHAIGLGQMNLHGYLAREGIAYGSPEALDFTNLYFYAITWHALRTSMLLARERGETFAGFKQSRYASGEYFSQYLQGNWQPKTAKVGELFTRSGITLPTREMWAQLRDDVMRYGIYNQNLQAVPPTGSISYINHATSSIHPIVAKVEIRKEGKTGRVYYPAPFMTNENLALYQDAYEIGAEKIIDTYAEATRHVDQGLSLTLFFPDTATTRDINKAQIYAWRKGIKTLYYIRLRQMALEGTEIEGCVSCAL |  |  | 2.61 ± 0.17 |  |  | 4.76 ± 0.29 | 4.61 ± 2.7 |  |  | 2.88 ± 1.4 |  |  |
| MAVIQDIIAALWQHDFAALADPHIVSVVYFVMFATLFLENGLLPASFLPGDSLLILAGALIAQGVMDFLPTIAILTAAASLGCWLSYIQGRWLGNTKTVKGWLAQLPAKYHQRATCMFDRHGLLALLAGRFLAFVRTLLPTMAGISGLPNRRFQFFNWLSGLLWVSVVTSFGYALSMIPFVKRHEDQVMTFLMILPIALLTAGLLGTLFVVIKKKYCNA [P0AA60] |  | 2.23 | 4.04 ± 1.4 |  | 8.67 | 4.46 | 4.55 | 3.26 |  | 7.25 |  | > 8 |
| MAVQKNVIKGILAGTFALMLSGCVTVPDAIKGSSPTPQQDLVRVMSAPQLYVGQEARFGGKVVAVQNQQGKTRLEIATVPLDSGARPTLGEPSRGRIYADVNGFLDPVDFRGQLVTVVGPITGAVDGKIGNTPYKFMVMQVTGYKRWHLTQQVIMPPQPIDPWFYGGRGWPYGYGGWGWYNPGPARVQTVVTE [P0AA91] | 5.76 ± 0.071 | 3.01 ± 0.17 | 6.05 ± 0.21 | 6.52 ± 0.45 |  | 6.07 ± 0.61 | 6.3 ± 0.12 | 6.13 ± 0.12 | 6.532 ± 0.04 | 10.7 ± 2.4 | 13.7 ± 1.7 | 6.13 ± 0.1 |
| MAYFLDFDERALKEWRKLGSTVREQLKKKLVEVLESPRIEANKLRGMPDCYKIKLRSSGYRLVYQVIDEKVVVFVISVGKRERSEVYSEAVKRIL [P0C077] | 2.83 ± 0.12 | 3 ± 0.35 | 4.25 ± 0.73 | 2.58 ± 0.06 | 11.3 ± 0.5 | 4.02 ± 0.45 | 3.59 ± 0.8 | 2.54 ± 0.14 | 3.36 ± 0.24 | 6.2 ± 0.85 | 3.73 ± 0.099 | 3.75 ± 0.74 |
| MAYSKIRQPKLSDVIEQQLEFLILEGTLRPGEKLPPERELAKQFDVSRPSLREAIQRLEAKGLLLRRQGGGTFVQSSLWQSFSDPLVELLSDHPESQYDLLETRHALEGIAAYYAALRSTDEDKERIRELHHAIELAQQSGDLDAESNAVLQYQIAVTEAAHNVVLLHLLRCMEPMLAQNVRQNFELLYSRREMLPLVSSHRTRIFEAIMAGKPEEAREASHRHLAFIEEILLDRSREESRRERSLRRLEQRKN [P0ACL9] | 4.54 ± 0.35 | 2.94 ± 0.1 | 6.361 ± 0.042 | 4.53 ± 0.67 | 11.2 ± 1.1 | 5.54 ± 0.1 | 5.3 ± 0.09 | 4.94 ± 0.19 | 4.33 | 9.49 ± 0.8 | 9.28 | 5.59 ± 0.71 |
| MCEHHHAAKHILCSQCDMLVALPRLEHGQKAACPRCGTTLTVAWDAPRQRPTAYALAALFMLLLSNLFPFVNMNVAGVTSEITLLEIPGVLFSEDYASLGTFFLLFVQLVPAFCLITILLLVNRAELPVRLKEQLARVLFQLKTWGMAEIFLAGVLVSFVKLMAYGSIGVGSSFLPWCLFCVLQLRAFQCVDRRWLWDDIAPMPELRQPLKPGVTGIRQGLRSCSCCTAILPADEPVCPRCSTKGYVRRRNSLQWTLALLVTSIMLYLPANILPIMVTDLLGSKMPSTILAGVILLWSEGSYPVAAVIFLASIMVPTLKMIAIAWLCWDAKGHGKRDSERMHLIYEVVEFVGRWSMIDVFVIAVLSALVRMGGLMSIYPAMGALMFALVVIMTMFSAMTFDPRLSWDRQPESEHEES [P0AFL9] |  |  |  |  |  |  |  |  |  |  | 11 |  |
